In the nanobody polyreactivity screen of Harvey et al. (2022):

experiment: yeast display, Sf9 membrane polyspecificity reagent, FACS + sequencing; frameworks hold sequencing errors
In short: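 A synthetic nanobody library was expressed on Saccharomyces cerevisiae BJ5465 by galactose induction for 36–48 hours. The library was stained for 1 hour at 4 °C with 10% biotinylated, detergent-solubilized Sf9 membrane reagent and enriched with streptavidin microbeads before FACS. Low and high (top ~1%) gates were set on anti-HA fluorescence for expression and streptavidin fluorescence for reagent binding, and each polyreactivity label reflects the gate of origin.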

| Sequence | polyreactivity (PSR sort gate) |
| --- | --- |
| QFQLVESGGGLVQAGCSLRLSCAAYGSIFGGYAMGWYRQAPGKERELVAAISYRGASTYYADSVKGRFTISRDNAKNTVYLQMNILKPEDTAVYYCAVPARTRARVLYGYDYWGQGTQVTVSS | low polyreactivity |
| QVQLVESGGGLVQAGRSLRLSCASSGSTFRVYDMGWYRQAPGNERELVASISYSVGSTYYADSVKGRFTISRDNAKNTVYLQMITLKPEDTEVYFCAARPSYQPSSLARYDYWGQGTQVSVSS | low polyreactivity |
| QVQLVESGGGLVQAGGSLRLSCAASGGTFRVYAMGWYRQAPGKERELVAAITGRGGSTYYADSVKGRFTISRDNAKNTVYLQMNSLKPEETAVYYCAKDPVTTYYKYDYWGQGTQVTVSS | low polyreactivity |
| QVQLVESVGGLVQAGGSLRLSCAASGSTFTAYAMGWYRQAPGKERELVAAITSGGSKNYADSVKGRFTISRDNAKNTVYLQMNSLKPEDTAVYYCNADDYWLDSWSSFLWYDYWGQGTQVTVSS | low polyreactivity |
| QVQLVESGGGLVQAGGSLRLSCAASGFIFTNYAIGWYRQAPGKVRELVATISSGGGSTYYADSVKGRFTISRDNAKNTVYLQMNSLKQEDTAVYYCAASRRITGIRYINRYEYWGQGTQVTVSS | high polyreactivity |
| QVQLVESGGGLVQAGGSLRLSCAASGRTFYNNAMGWYRPAPGKERELVAAISQRTGRTYYADSVKGRFTISRDNAKNTVYLQMNSLKPEDTAVYYCNKVAYYSRRMDYWGQGTQVTVSS | high polyreactivity |
| QVQLVESGGGLVQAGGSLRLSCAASGSTFVNAMGWYRQAPGKERELVAAISLSGDSTYYADSVKGRFTISRDNAKNTVYLQMNCLKPEDTAVYYCNADGLGGEDPEYLWYPVPDYDYWGQGTQVTVSS | low polyreactivity |
| QVQLVESGGGLVQAGGSLRLSCAASGITFVVYAMGCYRPAPGKERELVASITYSGGSTYYADSVQGRFTISRDNAKNTVYLQMTSLKPEDTAVYYCNADGYTIYYLPYSDYDAYDYWGQGTQVTVSS | low polyreactivity |
| QVQLVESGGGLVQAGGSLRLSCAASGRIFGTNAMGWYRQAPGKERELVADITSGGSTNYADSVKGRFTISRDNAKNTVYLQMNSLKPEDTSVYYCAATWYGYYSRYDFYYWGQGTQVTVSS | low polyreactivity |
| QVQLVESGGGLVQAGGSLRLSSAASGRIFLRNALGWYRQAPGKERESVAAITRGGSTNYADSVKGRFTISRDNAKNTVYLQMNSLKPEDTAVYYCNARYPVVRYDYWGQGTQVTVSS | high polyreactivity |
| QVQLVESGGGIVQAGGSLRLSCAASGRIFVYNTMGWYRQAPGKEREFVAALSWRGGRTYYADSVKGRFTISRDNAKNTVYLQKNSLKPEDTAVYYCGADLKYYGYDYWGQGTHVTVSS | high polyreactivity |
| QVQLVESGGGLVQAGGSLRLSCAASGFTFSYYAMGWYIQAPGKERELVATITWGGGRTYYADSVKGRFTISRDNAKNTVYLQMNSLKPEDTAVYYCNAERTYFQYYRNYDYWGQGTKVTVSS | low polyreactivity |
| QVQLVESGGGLVQAGGSLRLICAASGSTFKGYAMGWYIQSPGKERELVAAISWPGGRTSYADSVKGRFTISRDNAKNTVYLQMNSLKPEDTAVYYCNKAWWVQKGYFFYYWEQGTQVTVSS | high polyreactivity |
| QVQLVESGGGLVQAGGSLRLSCAASGSIFGPYAMGWYRQAPGKERELVATITTNGGSTYYADSVKGRFTISRDNAKNTVYLQMNSLKPEDTAVYYCATQHTDYVGAATTYNYWGQGTQVTVSS | low polyreactivity |
| QVQLVESCGGLVQAGGSLRLSCAASGSIFQSYAMGWYRQAPGKERELVAAITERGGSTYYADSVKGRFTISRDNAKNTVYLQMNSLKPEDTAVYYCAADIYYWWGLSDLYTPTEGDYWGQGTQVTVSS | low polyreactivity |
| QVQLVESGGGLVQAGGSLRLSCAASGRIFVEYAMGWYRQAPGKERELVAAINSGGSTNYADSVKGRFTISRDNAKNTVYLQMNSLKPEDTAVYYCNKDTLVYGYVQDYEYWGQGTQVTVSS | low polyreactivity |

| Sequence | polyreactivity (PSR sort gate) |
| --- | --- |
| QVQLVESGGGLVQAGGSLGLSCAASGLTFTHYTMGWYRQAPGKERELVAGISQTGGSTYYADSVKGRFTISRDNAKNTVYLQMNSLKPEDTAVYYCSRVFPRPRTGYYYWGQGTQVTVSS | high polyreactivity |
| QVQLVESGGGLVQAGGSLRLSCAASGRTFGVYAMGWYRQAPGKERELVPAIRWSGGGTYYADSVKGRFTISRDTAKNTVYVQMNSLKPEDTAVYYCAASFQNSPYTRYTDMYYWGQGTQVTVTS | low polyreactivity |
| QVQLVESGGGLVQAGGSLRLSCAASGFIFSSYALGSYRQAPGKERELVAAIDLSGDSTYYADSVKGLFTISRDNAKNTVYLQMNSVKPEDTAVYYCAAQYYDYWYDSDYWGQGTQVTVSS | high polyreactivity |
| QVQLVESGGGLVQAGGSLRLSCAASGSILASYAMGWYRQAPGKERELVAAINRGGRTKYADSVKGRFTISRDNAKNTVYLQMNSLKPEDTAVYYCAKSDSQYEGDGYWGQGTQVTVSS | high polyreactivity |
| QFQLVESGGGLVQAGGSLRLSCAASGSIFYRYAMGSDRQAPGKERELVAAISTGGGSTKYADSVKGRFTISRHNAKNTVYLQMNSLKPEDTAVYYCAASRAVTQYSGGGYGGQGTQVTVSS | high polyreactivity |
| QVQLVESGGGLVQAGGSLRLSCAASGRTFAANTMGWYRQAPGKERELVAAINAGGSTYYADSVKGRFTISRDTAKNTVYLQMNSLKPEDTAVYYCAAKGSGYYGRQRIYSYTYDYWGQGTQVTVSS | high polyreactivity |
| QVQLVESGGGLVQAGGSLRLSCAASGSIFKEYTMGWYRQAPGKERELVAAITWSDGSTDYADSVKGRFTISRDNAKNTVYLQMNSLKPEDTAVYYCAADYDYPYFWSSGYIDDYWGQGTQVTVSS | low polyreactivity |
| QVQLVESGGGLVQAGGSLRLSCAASGRIFRKYGMGWYRPAPGKERELVAAITGGGSTYYADSVKGRFTISRDNAKNTVYVQMNSLKPEDTAVYYCARGGYRWYPYVYVPSPFDYWGQGTQVTVSS | high polyreactivity |
| QVQLVESGGGLVQAGGSLRLICAASGITFYRNARGWYRQAPGKERELVAAITSGTSTYYADSVKGRFTISRDNAKFTVYLQMISLKPEDTAVYYCAKRTPPGYYGFDYWGQGTQVNVSS | low polyreactivity |
| QVQLVESGGGLDQAGGSLRLSCAASGSIFNFYALGWYRQAPGKERELVAAISWSAGSTYYADSVKGRFTISRDYAKNTVYLQMNSLKPEDTAVYYCAADRYAYDWIQYYYHFLYDYWGQGTQVTVSS | low polyreactivity |
| QVQLVESGGGLVQAGGSLRLSCAASGLTFRAYAMGWYRLAPGKERELVAAITWSGTRTYYADSVKGRFTISRDNAKNTVYLQMNSLKPEDTAVYYCARGHTKVKYDYWGQGTQVTVSS | low polyreactivity |
| QVQLVESGGGLVQAGGSLRLSCAASGSIFPVYAMGWYRQAPGKERELVASISTGGSTYYADSVKGRFTISRDNAKNTVYLQMNSLKPEDTAVYYCSATGWAYGYGYGYWGQGTQVTVSS | low polyreactivity |
| QVQLVESGGGLVQAGGSLRLTCAACGRIFNKYAMVWYIQAPGKERELVAAINGGGSTNYADSVKGRFTISRDNAKNTDYLQMNSLKAEDTAVYYCSTTPDGEGGYWGQGTQVTVSS | low polyreactivity |
| QVQLVESGGGLVQAGGSLRLSCAASGSIFKPYAMGWSRQAPGKERELVAAISRSGSTYYADSVKGRFTISRDNAKNTVYLQMNSLKPEDTAVYYCAKDVRPNYYAAFNYWGQGTQVTVSS | low polyreactivity |
| QVQLVESGGRLVQAGGSLRLSCAASGFTFNYNAMGWYRQAPGKERELVAAISRSGGSTYYADSVMGRFTISRDNAKNTFYLQMNSLKPEDTAVYYFAAVRDIGKYGYWGQGTQVTVSS | high polyreactivity |
